# Source: patent US20120328512A1 (BRACCO IMAGING S P A, published 2012)
# Bridge positions count the residues as written; N and C are the ends. Square brackets hold non-standard residues; d marks the D form. Primed or numbered codes have the meaning given here. * marks the point of attachment. αGalNAc = CC(=O)N[C@@H]1[C@@H](O)[C@@H](O)[C@@H](CO)O[C@@H]1*; CF5″ = 5-carboxyfluorescein label; Hyp = O=C(O)[C@@H]1C[C@@H](O)CN1; Cha = N[C@@H](CC1CCCCC1)C(=O)O; CF5 = 5-carboxyfluorescein; AEEA = NCCOCCOCC(=O)O
# T1: DDE
# T1 chain 1: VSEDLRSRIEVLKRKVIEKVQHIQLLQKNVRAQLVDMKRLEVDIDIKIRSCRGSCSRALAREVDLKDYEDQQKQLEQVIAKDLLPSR
# T1 chain 2: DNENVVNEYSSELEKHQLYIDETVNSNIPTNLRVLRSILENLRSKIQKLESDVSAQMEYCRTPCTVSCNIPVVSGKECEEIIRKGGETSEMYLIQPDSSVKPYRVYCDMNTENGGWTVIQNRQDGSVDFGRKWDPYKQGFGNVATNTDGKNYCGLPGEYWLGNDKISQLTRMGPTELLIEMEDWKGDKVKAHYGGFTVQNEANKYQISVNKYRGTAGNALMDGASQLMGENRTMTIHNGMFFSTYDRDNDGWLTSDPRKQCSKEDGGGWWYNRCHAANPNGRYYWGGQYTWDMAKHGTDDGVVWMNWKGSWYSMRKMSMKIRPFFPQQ
# T1 chain 3: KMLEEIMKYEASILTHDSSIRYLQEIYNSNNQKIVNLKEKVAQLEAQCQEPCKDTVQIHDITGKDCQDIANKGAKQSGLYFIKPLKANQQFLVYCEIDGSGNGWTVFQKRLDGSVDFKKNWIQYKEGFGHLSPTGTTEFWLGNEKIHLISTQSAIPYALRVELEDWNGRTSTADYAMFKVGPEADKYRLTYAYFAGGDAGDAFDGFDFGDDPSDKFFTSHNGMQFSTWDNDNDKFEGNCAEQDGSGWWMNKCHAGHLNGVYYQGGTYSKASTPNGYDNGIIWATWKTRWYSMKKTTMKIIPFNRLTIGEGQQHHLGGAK
# T1 chain 4: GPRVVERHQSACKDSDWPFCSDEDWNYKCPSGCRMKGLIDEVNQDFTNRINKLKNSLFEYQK
# T1 chain 5: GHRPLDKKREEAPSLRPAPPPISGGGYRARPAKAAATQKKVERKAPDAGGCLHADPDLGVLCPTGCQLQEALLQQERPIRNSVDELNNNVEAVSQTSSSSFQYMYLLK
# T1 chain 6: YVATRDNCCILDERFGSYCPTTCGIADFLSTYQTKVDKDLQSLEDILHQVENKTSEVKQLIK
# B1: Seq005-P (peptide)
# peptide: Ac-WQPCPAESWTFCWDPGGGK-NH2
# modifications: disulfide 4-12
# SMILES: CC(=O)N[C@@H](Cc1c[nH]c2ccccc12)C(=O)N[C@@H](CCC(N)=O)C(=O)N1CCC[C@H]1C(=O)N[C@H]1CSSC[C@@H](C(=O)N[C@@H](Cc2c[nH]c3ccccc23)C(=O)N[C@@H](CC(=O)O)C(=O)N2CCC[C@H]2C(=O)NCC(=O)NCC(=O)NCC(=O)N[C@@H](CCCCN)C(N)=O)NC(=O)[C@H](Cc2ccccc2)NC(=O)[C@H]([C@@H](C)O)NC(=O)[C@H](Cc2c[nH]c3ccccc23)NC(=O)[C@H](CO)NC(=O)[C@H](CCC(=O)O)NC(=O)[C@H](C)NC(=O)[C@@H]2CCCN2C1=O
# B2: Seq047-P (peptide)
# peptide: Ac-RRGGWQPC[Hyp]WESWTFCWDPGGGK-NH2
# modifications: disulfide 8-16
# SMILES: CC(=O)N[C@@H](CCCNC(=N)N)C(=O)N[C@@H](CCCNC(=N)N)C(=O)NCC(=O)NCC(=O)N[C@@H](Cc1c[nH]c2ccccc12)C(=O)N[C@@H](CCC(N)=O)C(=O)N1CCC[C@H]1C(=O)N[C@H]1CSSC[C@@H](C(=O)N[C@@H](Cc2c[nH]c3ccccc23)C(=O)N[C@@H](CC(=O)O)C(=O)N2CCC[C@H]2C(=O)NCC(=O)NCC(=O)NCC(=O)N[C@@H](CCCCN)C(N)=O)NC(=O)[C@H](Cc2ccccc2)NC(=O)[C@H]([C@@H](C)O)NC(=O)[C@H](Cc2c[nH]c3ccccc23)NC(=O)[C@H](CO)NC(=O)[C@H](CCC(=O)O)NC(=O)[C@H](Cc2c[nH]c3ccccc23)NC(=O)[C@@H]2C[C@@H](O)CN2C1=O
# B3: Seq032-P (peptide)
# peptide: Ac-WQPC[Hyp]WESWTFCWDPGGGK-NH2
# modifications: disulfide 4-12
# notes: also called Ac-WQPC*-Hypt4-WESWTFC*WDPGGGK-NH2
# B4: Seq029-P (peptide)
# peptide: Ac-RRGGWQPCPWESWTFCWDPGGGK-NH2
# modifications: disulfide 8-16
# SMILES: CC(=O)N[C@@H](CCCNC(=N)N)C(=O)N[C@@H](CCCNC(=N)N)C(=O)NCC(=O)NCC(=O)N[C@@H](Cc1c[nH]c2ccccc12)C(=O)N[C@@H](CCC(N)=O)C(=O)N1CCC[C@H]1C(=O)N[C@H]1CSSC[C@@H](C(=O)N[C@@H](Cc2c[nH]c3ccccc23)C(=O)N[C@@H](CC(=O)O)C(=O)N2CCC[C@H]2C(=O)NCC(=O)NCC(=O)NCC(=O)N[C@@H](CCCCN)C(N)=O)NC(=O)[C@H](Cc2ccccc2)NC(=O)[C@H]([C@@H](C)O)NC(=O)[C@H](Cc2c[nH]c3ccccc23)NC(=O)[C@H](CO)NC(=O)[C@H](CCC(=O)O)NC(=O)[C@H](Cc2c[nH]c3ccccc23)NC(=O)[C@@H]2CCCN2C1=O
# B5: Seq031-P (peptide)
# peptide: Ac-S(αGalNAc)[AEEA]WQPCPWESWTFCWDPGGGK-NH2
# modifications: disulfide 6-14
# SMILES: CC(=O)N[C@H]1[C@@H](OC[C@H](NC(C)=O)C(=O)NCCOCCOCC(=O)N[C@@H](Cc2c[nH]c3ccccc23)C(=O)N[C@@H](CCC(N)=O)C(=O)N2CCC[C@H]2C(=O)N[C@H]2CSSC[C@@H](C(=O)N[C@@H](Cc3c[nH]c4ccccc34)C(=O)N[C@@H](CC(=O)O)C(=O)N3CCC[C@H]3C(=O)NCC(=O)NCC(=O)NCC(=O)N[C@@H](CCCCN)C(N)=O)NC(=O)[C@H](Cc3ccccc3)NC(=O)[C@H]([C@@H](C)O)NC(=O)[C@H](Cc3c[nH]c4ccccc34)NC(=O)[C@H](CO)NC(=O)[C@H](CCC(=O)O)NC(=O)[C@H](Cc3c[nH]c4ccccc34)NC(=O)[C@@H]3CCCN3C2=O)O[C@H](CO)[C@H](O)[C@@H]1O
# B6: Seq042-CF5 (peptide)
# peptide: Ac-WQPCPAESWT[Cha]CWDPGGGK(CF5)-NH2
# modifications: disulfide 4-12
# notes: also called Ac-WQPC*PAESWT-Cha-C*WDPGGGK(CF5)-NH2
# Target: T1, DDE
# Assay: competition fluorescence polarization: unlabeled peptide against Seq000-CF5 tracer on DDE; n = 2
row,Binder,Rel IC50
1,B1,0.875 ratio to the reference peptide
2,Ac-KKGWQPCPWESWTFCWDPGGGK-NH2 (disulfide 7-15) [Seq025-P],0.357 ratio to the reference peptide
3,Ac-GGRGWQPCPWESWTFCWDPGGGK-NH2 (disulfide 8-16) [Seq015-P],0.37 ratio to the reference peptide
4,Ac-SGSGSGSGWQPCPWESWTFCWDPGGGK-NH2 (disulfide 12-20) [Seq024-P],0.527 ratio to the reference peptide
5,Ac-SGSG[AEEA]WQPCPWESWTFCWDPGGGK-NH2 (disulfide 9-17) [Seq017-P],0.714 ratio to the reference peptide
6,H-RGWQPCPWESWTFCWDPGGGK-NH2 (disulfide 6-14) [Seq022-P],0.511 ratio to the reference peptide
7,B2,0.75 ratio to the reference peptide
8,H-RWQPCPWESWTFCWDPGGGK-NH2 (disulfide 5-13) [Seq023-P],0.47 ratio to the reference peptide
9,Ac-KGKGKGWQPCPWESWTFCWDPGGGK-NH2 (disulfide 10-18) [Seq026-P],0.595 ratio to the reference peptide
10,Ac-GPPGWQPCPWESWTFCWDPGGGK-NH2 (disulfide 8-16) [Seq014-P],0.235 ratio to the reference peptide
11,B3,0.55 ratio to the reference peptide
12,B4,0.125 ratio to the reference peptide
13,B5,1.15 ratio to the reference peptide

# Target: T1, DDE
# Assay: direct binding fluorescence polarization: CF5-labeled peptide titrated with DDE; n = 2
row,Binder,Kd
1,Ac-SGSGSGSGWQPCPAESWTFCWDPGGGK(CF5)-NH2 (disulfide 12-20) [Seq040-CF5],530 nM
2,Ac-KGKGKGWQPCPWESWTFCWDPGGGK(CF5)-NH2 (disulfide 10-18) [Seq026-CF5],760 nM
3,Ac-SGSG[AEEA]WQPCPAESWTFCWDPGGGK(CF5)-NH2 (disulfide 9-17) [Seq045-CF5],570 nM
4,Ac-GGRGWQPCPAESWTFCWDPGGGK(CF5)-NH2 (disulfide 8-16) [Seq035-CF5],520 nM
5,Ac-GPPGWQPCPAESWTFCWDPGGGK(CF5)-NH2 (disulfide 8-16) [Seq034-CF5],310 nM
6,Ac-RRGGWQPCPAESWTFCWDPGGGK(CF5)-NH2 (disulfide 8-16) [Seq046-CF5],220 nM
7,Ac-SGSGSGSGWQPCPWESWTFCWDPGGGK(CF5)-NH2 (disulfide 12-20) [Seq024-CF5],470 nM
8,Ac-KKGWQPCPWESWTFCWDPGGGK(CF5)-NH2 (disulfide 7-15) [Seq025-CF5],710 nM
9,B6,170 nM
10,Ac-SGSG[AEEA]WQPCPWESWTFCWDPGGGK(CF5″)-NH2 (disulfide 9-17) [Seq017-CF5],450 nM
